Non-standard residues stand in square brackets, D forms with d. sY = N[C@@H](Cc1ccc(OS(=O)(=O)O)cc1)C(=O)O
The binders below were run against thrombin (assay: chromogenic thrombin amidolytic activity assay; tight-binding model (Morrison equation)).

Row | Binder | Ki
1 | madanin-1 with a single sulfotyrosine at Tyr35 (peptide) MYPERDSAKEGNQEQERALHVKVQKRTDGDADYDE[sY]EEDGTTPTPDPTAPTAKPRLRGNKPHHHHHH | 6.1 nM
2 | wildtype madanin-1 (peptide) MYPERDSAKEGNQEQERALHVKVQKRTDGDADYDEYEEDGTTPTPDPTAPTAKPRLRGNKPHHHHHH | 16 nM
3 | wildtype chimadanin (peptide) MQPKEKTKGVEVEGNPATLISARQMDVSYDEYEDNGPDVIPGEPAKPRGGPKNGAASGKFDQIPDFSSESHHHHHHH | 12.9 nM
4 | chimadanin with a single biosynthesized sulfotyrosine at Tyr31 (sulfotyrosine at Tyr31 (counted without the initiator Met; residue 32 of SEQ ID NO: 107 as printed)) MQPKEKTKGVEVEGNPATLISARQMDVSYDEYEDNGPDVIPGEPAKPRGGPKNGAASGKFDQIPDFSSESHHHHHHH | 1.5 nM

The next binders have a lower Ki than those just listed; values first:

Row | Ki | Binder
5 | 1.3 nM | madanin-1 with a single sulfotyrosine at Tyr32 (peptide) MYPERDSAKEGNQEQERALHVKVQKRTDGDAD[sY]DEYEEDGTTPTPDPTAPTAKPRLRGNKPHHHHHH
6 | 0.6 nM | chimadanin with a single biosynthesized sulfotyrosine at Tyr28 (sulfotyrosine at Tyr28 (counted without the initiator Met; residue 29 of SEQ ID NO: 107 as printed)) MQPKEKTKGVEVEGNPATLISARQMDVSYDEYEDNGPDVIPGEPAKPRGGPKNGAASGKFDQIPDFSSESHHHHHHH
7 | 0.5 nM | madanin-1 sulfated at both Tyr32 and Tyr35 (peptide) MYPERDSAKEGNQEQERALHVKVQKRTDGDAD[sY]DE[sY]EEDGTTPTPDPTAPTAKPRLRGNKPHHHHHH
8 | 0.1 nM | chimadanin doubly sulfated at both Tyr28 and Tyr31 (sulfotyrosine at Tyr28 and Tyr31 (counted without the initiator Met; residues 29 and 32 of SEQ ID NO: 107 as printed)) MQPKEKTKGVEVEGNPATLISARQMDVSYDEYEDNGPDVIPGEPAKPRGGPKNGAASGKFDQIPDFSSESHHHHHHH
